# Measurements as given in patent US6495144B2, “EBNA2 peptides and methods of using same” (Johns Hopkins University School of Medicine, priority 1996, dated 2002).
# Where no end group is shown, it is not given here.
# Experiments:
# EBNA2/CBF1 complex = biological target: T1, EBNA2/CBF1 complex (Homo sapiens, UniProt Q06330); assay: EMSA competition of synthetic peptides for EBNA2/CBF1 complex formation; type: binding; details: for competition for EBNA2/CBF1 complex formation in EMSA, in words: 1.25-10 μg synthetic peptide
# T1 construct: and heparin-agarose purified CBF1; endogenous in cells; host or cells: CBF1: heparin-agarose purified cell protein; EBNA2 252-425: in vitro translation
# Description: FIG. 8 is an EMSA that examines the ability of synthetic peptides representing CR5 (PEP.CR5), CR6 (PEP.CR6), mutant CR6 (CR6WW323SR) (PEP.CR6WW>SR), CR7 (PEP.CR7), and a control, nonconserved region comprising amino acids 265-279 (CONTROL) to compete for EBNA2/CBF1 complex formation. Increasing amounts of peptide (i.e., 1.25, 2.5, 5.0 and 10 μg; black triangles) were added to the binding reactions containing the Cp CBF1 binding site probe, in vitro translated wild-type EBNA2 (i.e., corresponding to amino acids 252-425) and heparin-agarose purified CBF1.
# CR6 could perform this function by generating a specific secondary or tertiary structure that facilitates interaction (e.g., a lock and key model of interaction). Alternately, CR6 could mediate direct protein-protein contacts, perhaps through the formation of a tryptophan bridge (Corina et al., Virology, 197, 391-396 (1993)). To further examine the proposed contributions of CR5, CR6, and CR7 in EBNA2 interaction, and to probe the role of CR6, five 10-15 amino acid peptides were synthesized. The peptides were tested for their ability to compete with a full length EBNA2 protein for complex formation with CBF1. The relative location of the peptides in the EBNA2 protein is illustrated in FIG. 2, and the exact position of the sequences can be determined from FIG. 5. The peptides are as follows: a control peptide comprised of amino acids 265-279 (i.e., Ser Thr Pro Asn Asp Pro Asp Ser Pro Glu Pro Xaa Ser Pro Thr [SEQ ID NO:8], wherein Xaa is Arg or Pro); a CR5 peptide comprised of amino acids 299-314 (i.e., Ala Pro Ala Gln Pro Pro Pro Gly Ile Ile Asn Asp Gln Gln Leu [SEQ ID NO:9]); a CR6 peptide comprised of amino acids 318-327 (i.e., Pro Ser Gly Pro Pro Trp Trp Pro Pro Ile [SEQ ID NO:6]); a CR6 WW323SR peptide comprised of amino acids 318-327 (i.e., Pro Ser Gly Pro Pro Ser Arg Pro Pro Ile [SEQ ID NO:10]); and a CR7 peptide comprised of amino acids 380-391 (i.e., Pro Ser Met Pro Glu Leu Ser Pro Val Leu Gly Leu [SEQ ID NO:11]).
# Increasing amounts of the peptides were added to the binding reaction mixtures which were then analyzed using an EMSA (FIG. 8). […] It is known that EBNA2 can interact with CBF1 in solution (Grossman et al., supra; Henkel et al., supra). A typical binding reaction presumably contains both DNA-bound and non-DNA-bound EBNA2/CBF1 complexes.
# [1] = biological target: T2, EBNA2 interaction with CBF1 in solution (Homo sapiens, UniProt Q06330); assay: GST affinity assay with GST-EBNA2 (252-425) and 35S-labeled in vitro translated CBF1; type: binding
# T2 construct: made in house; host or cells: CBF1: in vitro translation
# T2 sequence (Q06330 whole entry): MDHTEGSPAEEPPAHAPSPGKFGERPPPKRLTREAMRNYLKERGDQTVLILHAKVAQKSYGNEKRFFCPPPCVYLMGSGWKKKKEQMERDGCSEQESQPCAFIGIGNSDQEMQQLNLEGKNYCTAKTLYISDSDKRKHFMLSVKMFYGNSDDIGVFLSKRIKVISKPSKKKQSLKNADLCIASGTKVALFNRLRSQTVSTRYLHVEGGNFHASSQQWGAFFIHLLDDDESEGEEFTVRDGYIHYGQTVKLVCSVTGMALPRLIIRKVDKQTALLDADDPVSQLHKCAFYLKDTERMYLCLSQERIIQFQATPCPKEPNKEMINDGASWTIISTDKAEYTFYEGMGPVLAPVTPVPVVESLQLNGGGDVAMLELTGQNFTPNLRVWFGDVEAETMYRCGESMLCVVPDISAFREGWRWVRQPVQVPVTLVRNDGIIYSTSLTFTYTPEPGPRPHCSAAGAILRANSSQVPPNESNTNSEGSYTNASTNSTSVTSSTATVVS
# T1 sequence (Q06330 whole entry, one chain of several): as the sequence (Q06330 whole entry) above
Substance,"competition for EBNA2/CBF1 complex formation in EMSA, in words (EBNA2/CBF1 complex)","competition for EBNA2 interaction with CBF1 in GST affinity assay, in words [1]",EBNA2/CBF1 complex eliminated by competition (EBNA2/CBF1 complex; 1.25-10 μg synthetic peptide added to binding reaction) [%]
APAQPPPGIINDQQL [CR5 peptide],Neither the control peptide nor the peptides spanning CR5 or CR7 had any effect on the formation of the EBNA2/CBF1 complex,,
PSGPPSRPPI [CR6 WW323SR peptide],abolished the ability of the peptide to compete with EBNA2 for interaction with CBF1,abolished the ability of the peptide to compete with EBNA2 for interaction with CBF1,
PSGPPWWPPI [CR6 peptide],regenerating the DNA-bound CBF1 complex to the levels seen in the absence of added EBNA2,could compete for EBNA2 interaction with CBF1 in solution,40
Pro Ser Met Pro Glu Leu Ser Pro Val Leu Gly Leu [CR7 peptide],Neither the control peptide nor the peptides spanning CR5 or CR7 had any effect on the formation of the EBNA2/CBF1 complex,,
"Ser Thr Pro Asn Asp Pro Asp Ser Pro Glu Pro Xaa Ser Pro Thr [control peptide, reference compound]",Neither the control peptide nor the peptides spanning CR5 or CR7 had any effect on the formation of the EBNA2/CBF1 complex,,
